Assay results: the DeepSol protein solubility set

Test: soluble on expression in E. coli; label from the status in PepcDB or PDB records

| Sequence | soluble on expression in E. coli |
| --- | --- |
| MESTLSLQANLYPRLTPAGAFYAVSSDAPSAGKTLLHSLLKADADEMVSSEKLLTWADTADIDTALNLLYRLQKLEFLYGDENGHSDGINLSDEQLPLLMEQLSGSGKALLVDRNGLYLANANFHHEAAEELGLLAAEVAQMEKKYRLLIKNNLYINNNAWGVCDPSGQSELTFFPLYIGSTKFILVIGGIPDLGKEAFVTLVRILYRRYSNRV | not soluble |
| LVIVTDPHQRIEWVNAAFEQQTGHSGPSVRGQPLCAVLQGEPAPGGCGDRLRAMLAEGRTARAEVEATAACGRRFWLDVSLQPLLDDEGALDGYMAVASDIT | not soluble |
| GGMEVLDLVTGPDSVTEIEAFLNPRMGQPPTPESLTEGGQYYGWSRGINLATSDTEDSPGNNTLPTWSMAKLQLPMLNEDLTCDTLQMWEAVSVKTEVVGSGSLLDVHGFNKPTDTVNTKGISTPVEGSQYHVFAVGGEPLDLQGLVTDARTKYKEEGVVTIKTITKKDMVNKDQVLNPISKAKLDKDGMYPVEIWHPDPAKNENTRYFGNYTGGTTTPPVLQFTNTLTTVLLDENGVGPLCKGEGLYLSCVDIMGWRVTRNYDVHHWRGLPRYFKITLRKRWVKNPYP | soluble |
| MSLVDDPLIVVNSEKVDKEYAELLMDKYYSKRTLEINSDNEIVVTENIIYNVPALDEFEINDGKGNLLVEFTKSGETVTYKNFEYEEELESDDEGDEVTFMGKTYKLIEYDEDEKIVLGNKVEDTETTEEFSYDAFTFKIIGMDSTGQILVSVYEGSDRIENVKMYPDDTYFVSGSKISIYYDEYMESGDTPYFFFEIYDSLEIEDGETISGYSNIDTDLDGKRINLEYESPKSLSQNFELLNYKVELTDVSDEDLTVFFTVTQNLNYEFDMDEGTKYFGNNIFAVKIENDEDDDSDDESYLYKNNKKYSEIVDYQGSVQLVDQDELLSASSDLILIGGPVSNKVTESIQNSLSVEVTNDYPGEGKGIIQTITNPNNDESTILVLAGSDRDGTKACVLALNQGLYSGSGNLVVKLTGDDSVSVEGHHHHHH | not soluble |
| MAHHHHHHMDTRMKDLSFKVVLLGEGRVGKTSLISRYVHNAFDEKEASTVQASMHSSKAVPINDASSAPGAIREVDLALWDTAGQERFHALAPMYYRNADGAIIVYDVTDADTLRKVRTWAKELYAVVGEGKIQLVLCGNKADTPLAEREVSEGEGAAMAAELGASHFFASAKTGQNVAEVFSAMATQVARSREVTGMGGGVAAGGSSGSSGGGAYTGISGRTPSRSRARRGLMVVTEDGEAVTPGRSSPCEGRVYGGITPPRAHRYGSSGTNQPITLSADGSPDAAAAANKSGCC | soluble |
| EIVMTQSPATLSVSPGERATLSCRASQSIGNNLHWYQQKPGQAPRLLIYYASQSISGIPARFSGSGSGTEFTLTISSLQSEDFAVYYCQQSNSWPYTFGGGTKVEIK | soluble |
| MSLNTLLMHCRPGFEGEVCAEIAEHAATLEIPGYAKSKPASAHVEFVCQDADGAERLMRRLRFADLIFPRQWARGPGFIELPESQRIEVLLAELASYPVCGSLWLEVLDTNAGKEVSTFCRKFEKPLRAALVKAGRLQEDPALPRLLLTFRSGREVFVGLAEPRNSALWPMGIPRLKFPREAPSRSTLKLEEAWHQFIPRSEWDKRLAPDMLAVDLGAAPGGWTWQLVNREMRVTAVDNGPMAENLMYSGLVDHQKVDGYQYRPRQRVDWMVCDIVEKPARTGALIETWIGEGLCREAVVNLKLPMKQRYAEVRKILQRLRESFDARGLKVAIGCKQLYHDREEVTCHLRRLEREGGSHHHHHH | soluble |
| MAGNHTNRPGLRKTNKKGATKGSGAVRRRGLKGKGPTPKAEDREYHAAYKKKMERKRRDQGRHVKEETSELVVGRNPVVECLHAKVPATT | not soluble |
| SAAPMSNVDEIRDRVILGEFGVKNVHTTDYPGNYPGYDDTWDFEKFKKNFRIEIISSDENTLEFDMIGIDAAIANAFRRILLAEVPTMAIEKVFIYNNTSIIQDEILAHRLGLVPIKADPRLFEYRNSEDQEGTEIDTIQLQLKVKCTRNPRAPKDSSDPKELYLNHMIYSGDIKWLPIGNQADVFADAKIGPVHGDILLAQVRPGQELDIVMHCVKGIGKDHAKFSPVATASYRLLPEITLLQTIEGEQAERLKRCFSPGVIELENVNGRKVAKVVNSRLDTCSREVLRHDDLKSLVKLGRVRDHFIFSVESTGILPPDVLVTEAINVLMSKCQKFLTELEATEMD | soluble |
| SANAEVSVPVGDVVVVPTEGNEGENPEDTKTQVILQLQPVQQGIYEAGSENNTAVVAVETHTIHKIEEGIDTGTIEANEDMEIAYPITCGESKAILLWKKFVCPGINVKCVKFNDQLISPKHFVHLAGKSTLKDWKRAIRLGGIMLRKMMDSGQIDFYQHDKVCSNTCRSTKFDLLISSARAPVPGQQTSVVQTPTSADGSITQIAISEESMEEAGLEWNSALTAAVTMATEEGVKKDSEEISEDTLMFWKGIADVGLMEEVVCNIQKEIEELLRGVQQRLIQAPFQVTDAAVLNNVAHTFGLMDTVKKVLDNRRNQVEQGEEQFLYTLTDLERQLEEQKKQGQDHRLKSQTVQNVVLMPVSTPKPPKRPRLQRPASTTVLSPSPPVQQPQFTVISPITITPVGQSFSMGNIPVATLSQGSSPVTVHTLPSGPQLFRYATVVSSAKSSSPDTVTIHPSSSLALLSSTAMQDGSTLGNMTTMVSPVELVAMESGLTSAIQAVESTSEDGQTIIEIDPAPDPEAEDTEGKAVILETELRTEEKVVAEMEEHQHQVHNVEIVVLED | soluble |
| MILPNPLARRLFLHLHALAEPPTGPAKGEALLALIDRLGFVQIDSISTVARAHHMILFARRQAYRPEALDRLLAQRHLFEHWTHDAAVIPARFFPFWHHRFRRDRPRLLARWRGWQREGFEEQFDAVLARIAESGPVSAAEVGEEEERGTGGWWDWHPSKAALEYLWRVGELSITRRDSFRKVYDLTSRVIPSGWLAMDPGDAATIHWACSEALDRLGFATSGELAAFWAAASPAEAQAWCHDALARGEIVEVRVEGADGSLRRSYARPEVAALAEAAPDPSPRLRILSPFDPVLRDRARAERLFGFRYRIEVFVPEAKRTYGYYVFPILEGDRLIGRIDMRAHRESGSLRVRALWPEAGVRLGSRRLGRLGAELDRLAQFAGCDQVKFEPDWLRETLPEGSVAGDLEHHHHHH | not soluble |
| MMMKSLLMTPLSHRVLKLFCRQTDQRFQKQKNALQQVQREKLQQILKISTLAQAAGVTDYEQFRQQFPVTRYTHWRDRIHECRAQQSTLSNSKLVRYQPTSGSSEQIKFIPYTQAFLDELDAAIAPWLSSMYRKCSTLGQGTHYWSVSWLPESQREVLKNENLNDDSALLGVGKRLLSKFTQTVPSDVSFAAHADDALFATLCYLVADQDLAMISVWSPTFALQLLEKLTEQSHEIALVLETGQWQTRAASLKGVKAPYNSARASLLRQLMKKDTLDYQQLWPKLSLVSSWDTAGSKQWAQLLQSELPFAQFEGKGLWATEGVVTIPYDDLYPLAYHSHFYEFEYLAGEHQGDIIPSWQLKLNDLVSPVLTSGNGLLRYCLDDCLRVTGFYGQVPCFEFQGRRFGVDLVGEKLSPEVAHKLLTRLNQQHIQAISLFAVDTQQQAKPFYAVLVEGEATSPLSVDEIDQALREHFHYELARDLGQLDQPQIFYVDNGWEGYKQVVVREGMIEGNIKPEPLKKVTLSSLEQLSCAESV | not soluble |
| MPHSCSGNYNSCAYIYGVHICKVLLILRAQNVYRNGGFMGEQLIISISREYGSGGHEIARKLADRLELAFYDRCMLDEIAEQMNADVSDFHKYDEKPGNRLLSRRVGNHTNSYEEIIAQFQFDYIRKKAESGESFVVVGRCSENVLKDYDCLISVFVTGDKEHKIQRVMEHFDLSESEAYTKMRRHDRTRKQYHNRYSEGKWGDATYYDMCINSSPLGIEKTVNVLENYVKERTGNQEL | not soluble |
| MGSDKIHHHHHHMEELIQKALSSSNKVSSNSLIEKIIPVGGGCIHKAWSIHFQNGKRVFAKSNYIDNINMFKFERECLSVLKRFANESYICVPETLDLISYQNISILFLEWIDLKQCQQNVLGKGLALLHKSSSEWSKKNFGWEEEGFIGSSTQARGWKSNWGEFFVNYRLRPQLLQAKAWGVRVEDYEDVLIYLSSYLNDHQPKTSLVHGDLWSGNCGSTKNGLGSLYDPACYWADREVDISMTKLFGGFNREFYKGYEEIWPLNKFSKDRNDIYNLYHLLNHANIFGGSYKENSLKILKDLRSRV | not soluble |
| LTAGKVDIPTPDGKMPAYRAAPAGKKDLPTLLVVSEIFGVHEYIQDVCRRLARLGYQAVAPELFARYGDPTGYTDIGRLRAEVVDKAGDRQVLADLDAAAAWAAANGGNSSRLGILGFCWGGRIVWLYAAHNPGLKAGAAWYGQLGGQASELKPRSVLESIGDLKAPVLGAYGGKDAGIPLSDVDRMRLALAKGPRAARDSRIDVYPEAPHAFHADYRPSYRKAEAEQAWQRMLDWFGQH | not soluble |
| MEHPEGEDPTLLPPALAARALGVSPATLRRYAALWERLVGPLPRDPRGGRLWPKEALARLRAAREAHLREGLPLEEALARVQGDFPALALPSEGEALALLRALAERLERVEGELRALREENARLREALKALEPPRRRPWWRFWGH | soluble |
| MGSDKIHHHHHHMQTIQLSNIFKQQAHQTILKDFTLTIPAQSNIGIQMSHVEATTLFNLLRQTTPQTSGVMTGLTPARIQAIFHDDGFYPQLTVSTYLKTFQHISTFETDLDDILQYFALKDVAHTKIKHLSFDQQQRLALLRAFILQPDLLLIESPLTNLTNAGIELYLAALAYTREHGVTVLLTSYSLEELVLTSTTIFRYRPNQGLELTDLATESSSDSAHTSEDTPRPIFKIASKVEDKTVFFSPNEIDFIESVNGVSQLNVSGEQFTSSQTMSELEQQLTTLGFFRCHRSYLVNLQQIAELISYSRNSYTLILKNKSKLPLSRGKLTDLKALINF | not soluble |
| MNWYELYWQRITPLHLFLWPVSQLLILFQSVRRFLYRRAILTSIHLPVPIIIIDSITTDSPVKTSLIIQIANILKAAGLRPGIISRGYPDNHRPPTRVTISSHPHLTGEKSLLLTYHLRETCPVWIGYDRIETAKALLNAHKECNVLICDDGLQDLRLQRDFEAVIVDTSVINSGNGLIMPAGPLRDSFARLKHTDAVILAGHQRRIPDITDEIRTIHTRPQKEHFFNLSWPELTADAAGLAGKRIHAIVCDPDTQNFLDNLEFLKLTVTPRVFPENHHFIATDFQSDEAEIILIPEEDAVKCLSLHDDRIWVLQQEYRVDPGLREIILKKLREKFMDPKLLDILVCPLCKGSLIYKKDRLELICKADRLAYPIRDGIPVMLEDEARKLPDEEEIKLEHHHHHH | not soluble |
| MAHHHHHHMQTHISRAVEEGRHTKEAAAYFESIMNDKPEFRLFMREAQRLIGDQDPRGLTRYQQTHYSEKLSRYMSGVASERLMRAHTEDENTRRHTHDGSPTGENYWFEAGQILASPTVPSFVKDEVLREMRGGRKEDSPAFEEPKAVAEMEADDEGFAEHLRRQRKRLLSPDDHLN | soluble |
| MSLSLLVIGSLAFDDIETPFGRSDNTLGGSSTYIALSASYFTDEPIRMVGVVGSDFGKEHFDLLHAKNIDTRGIQVIEDGKTFRWAGRYHYDMNTRDTLDTQLNVFAEFDPHVPQYYRDSKFVCLGNIDPELQLKVLDQIDDPKLVVCDTMNFWIEGKPEELKKVLARVDVFIVNDSEARLLSGDPNLVKTARIIREMGPKTLIIKKGEHGALLFTDNGIFAAPAFPLESIYDPTGAGDTFAGGFIGHLARCGNTSEAEMRKAVLYGSAMASFCVEQFGPYRYNDLDLLEVDDRYQSFLELSRIEEGHHHHHH | soluble |
